Measured values from the supplement of paper PMC9112550, “Optimization of the antimicrobial peptide Bac7 by deep mutational scanning” (BMC Biology, 2022).

System: Escherichia coli TOP10
Assay: shrunken log2 fold change of peptide-encoding DNA abundance (4.5 h post-induction vs induction); higher = less antimicrobial activity (less host growth inhibition)
Conditions: time post-induction: 4.5 h; library: site-saturation at positions 5, 18, 19, 20
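Also: peptides expressed intracellularly from a pBAD plasmid library in pooled LB shake-flask culture, induced with 0.3% L-arabinose, DNA abundance read by NGS, three biological replicates, DESeq2 with apeglm shrinkage.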

Q: With RRIRGRPPRLPRPRPRPGPFPRP as the sequence, how does the “shrunken log2 fold change” value read?
A: Its value is 0.218.

Q: RRIRNRPPRLPRPRPRPTDRPRP was tested. Which “shrunken log2 fold change” value did it give?
A: The value was 0.0372.

Q: How did the “shrunken log2 fold change” value turn out when RRIRGRPPRLPRPRPRPQLVPRP was run?
A: Its value is 0.0859.

Q: How did the “shrunken log2 fold change” value turn out when RRIRWRPPRLPRPRPRPELKPRP was run?
A: The value was 0.276.

Q: How did the “shrunken log2 fold change” value turn out when RRIRIRPPRLPRPRPRPYAYPRP was run?
A: The value was -0.0284.

Q: With RRIRIRPPRLPRPRPRPQGRPRP as the sequence, how does the “shrunken log2 fold change” value read?
A: Its value is -0.25.

Q: With RRIRGRPPRLPRPRPRPQNNPRP as the sequence, how does the “shrunken log2 fold change” value read?
A: Its value is -0.0456.

Q: RRIRPRPPRLPRPRPRPVLFPRP was tested. Which “shrunken log2 fold change” value did it give?
A: The value was 0.118.

Q: Which “shrunken log2 fold change” value does the source give for RRIRSRPPRLPRPRPRPSGEPRP here?
A: Its value is 0.406.

Q: For RRIRPRPPRLPRPRPRPDMDPRP, which “shrunken log2 fold change” value is on record?
A: Its value is -0.21.

Q: How did the “shrunken log2 fold change” value turn out when RRIRRRPPRLPRPRPRPGYNPRP was run?
A: The value was -0.27.

Q: RRIRERPPRLPRPRPRPFFDPRP was tested. Which “shrunken log2 fold change” value did it give?
A: The value was 0.0568.

Q: RRIRARPPRLPRPRPRPLVCPRP was tested. Which “shrunken log2 fold change” value did it give?
A: Its value is 0.483.

Q: RRIRTRPPRLPRPRPRPVCCPRP was tested. Which “shrunken log2 fold change” value did it give?
A: Its value is -0.254.

Q: For RRIRNRPPRLPRPRPRPVLDPRP, which “shrunken log2 fold change” value is on record?
A: Its value is -0.299.

Q: With RRIRKRPPRLPRPRPRPGVTPRP as the sequence, how does the “shrunken log2 fold change” value read?
A: The value was 0.409.

Q: How did the “shrunken log2 fold change” value turn out when RRIRNRPPRLPRPRPRPEWAPRP was run?
A: Its value is 0.0317.

Q: With RRIRWRPPRLPRPRPRPCSGPRP as the sequence, how does the “shrunken log2 fold change” value read?
A: Its value is -0.0411.

Q: With RRIRNRPPRLPRPRPRPKTMPRP as the sequence, how does the “shrunken log2 fold change” value read?
A: The value was 0.177.

Q: Which “shrunken log2 fold change” value does the source give for RRIRFRPPRLPRPRPRPGREPRP here?
A: Its value is 0.0157.

Q: RRIRGRPPRLPRPRPRPDVGPRP was tested. Which “shrunken log2 fold change” value did it give?
A: Its value is 0.434.

Q: RRIRDRPPRLPRPRPRPFNEPRP was tested. Which “shrunken log2 fold change” value did it give?
A: Its value is 0.0103.

Q: RRIRKRPPRLPRPRPRPFSFPRP was tested. Which “shrunken log2 fold change” value did it give?
A: Its value is 0.0267.

Q: With RRIRCRPPRLPRPRPRPQMPPRP as the sequence, how does the “shrunken log2 fold change” value read?
A: Its value is -0.0931.

Q: RRIRPRPPRLPRPRPRPIDRPRP was tested. Which “shrunken log2 fold change” value did it give?
A: The value was -0.00145.

Q: For RRIRGRPPRLPRPRPRPCVYPRP, which “shrunken log2 fold change” value is on record?
A: The value was 0.486.

Q: For RRIRARPPRLPRPRPRPRDVPRP, which “shrunken log2 fold change” value is on record?
A: Its value is 0.261.

Q: How did the “shrunken log2 fold change” value turn out when RRIRARPPRLPRPRPRPVGKPRP was run?
A: Its value is 0.196.

Q: With RRIRTRPPRLPRPRPRPPDFPRP as the sequence, how does the “shrunken log2 fold change” value read?
A: Its value is 0.0547.

Q: With RRIRNRPPRLPRPRPRPCEEPRP as the sequence, how does the “shrunken log2 fold change” value read?
A: The value was -0.0104.

Q: Which “shrunken log2 fold change” value does the source give for RRIRIRPPRLPRPRPRPTISPRP here?
A: Its value is -0.385.

Q: Which “shrunken log2 fold change” value does the source give for RRIRCRPPRLPRPRPRPNYLPRP here?
A: Its value is -0.797.

Q: How did the “shrunken log2 fold change” value turn out when RRIRPRPPRLPRPRPRPSYCPRP was run?
A: Its value is -0.387.

Q: With RRIRDRPPRLPRPRPRPACWPRP as the sequence, how does the “shrunken log2 fold change” value read?
A: The value was 0.929.

Q: How did the “shrunken log2 fold change” value turn out when RRIRQRPPRLPRPRPRPRAHPRP was run?
A: The value was 0.638.

Q: How did the “shrunken log2 fold change” value turn out when RRIRTRPPRLPRPRPRPWVFPRP was run?
A: Its value is 0.0157.

Q: How did the “shrunken log2 fold change” value turn out when RRIRERPPRLPRPRPRPAEAPRP was run?
A: Its value is -0.0209.

Q: RRIRIRPPRLPRPRPRPPYGPRP was tested. Which “shrunken log2 fold change” value did it give?
A: Its value is -0.202.

Q: How did the “shrunken log2 fold change” value turn out when RRIRCRPPRLPRPRPRPNNMPRP was run?
A: The value was -0.745.

Q: With RRIRPRPPRLPRPRPRPLKWPRP as the sequence, how does the “shrunken log2 fold change” value read?
A: Its value is 0.398.

Q: For RRIRDRPPRLPRPRPRPMIAPRP, which “shrunken log2 fold change” value is on record?
A: The value was 0.732.

Q: Which “shrunken log2 fold change” value does the source give for RRIRRRPPRLPRPRPRPFTYPRP here?
A: Its value is -0.22.

Q: RRIRERPPRLPRPRPRPDSPPRP was tested. Which “shrunken log2 fold change” value did it give?
A: The value was -0.184.

Q: RRIRDRPPRLPRPRPRPMFFPRP was tested. Which “shrunken log2 fold change” value did it give?
A: Its value is 0.125.

Q: Which “shrunken log2 fold change” value does the source give for RRIRGRPPRLPRPRPRPASHPRP here?
A: The value was 0.252.

Q: Which “shrunken log2 fold change” value does the source give for RRIRTRPPRLPRPRPRPDHVPRP here?
A: The value was -0.0634.

Q: Which “shrunken log2 fold change” value does the source give for RRIRWRPPRLPRPRPRPPWNPRP here?
A: Its value is 0.279.

Q: With RRIRGRPPRLPRPRPRPSVKPRP as the sequence, how does the “shrunken log2 fold change” value read?
A: The value was 0.293.

Q: Which “shrunken log2 fold change” value does the source give for RRIRDRPPRLPRPRPRPMVGPRP here?
A: Its value is 0.564.

Q: For RRIRKRPPRLPRPRPRPWQVPRP, which “shrunken log2 fold change” value is on record?
A: The value was -0.0062.

Q: With RRIRMRPPRLPRPRPRPYANPRP as the sequence, how does the “shrunken log2 fold change” value read?
A: Its value is -0.139.

Q: With RRIRLRPPRLPRPRPRPKCDPRP as the sequence, how does the “shrunken log2 fold change” value read?
A: The value was -0.461.

Q: How did the “shrunken log2 fold change” value turn out when RRIRQRPPRLPRPRPRPMWAPRP was run?
A: Its value is -0.127.

Q: Which “shrunken log2 fold change” value does the source give for RRIRGRPPRLPRPRPRPFYQPRP here?
A: Its value is 0.0158.

Q: With RRIRERPPRLPRPRPRPIMPPRP as the sequence, how does the “shrunken log2 fold change” value read?
A: The value was -0.356.

Q: RRIRDRPPRLPRPRPRPKHPPRP was tested. Which “shrunken log2 fold change” value did it give?
A: The value was 0.0483.

Q: For RRIRARPPRLPRPRPRPNIHPRP, which “shrunken log2 fold change” value is on record?
A: Its value is -0.333.

Q: With RRIRYRPPRLPRPRPRPCERPRP as the sequence, how does the “shrunken log2 fold change” value read?
A: Its value is 0.0112.

Q: With RRIRMRPPRLPRPRPRPHQEPRP as the sequence, how does the “shrunken log2 fold change” value read?
A: The value was 0.018.

Q: RRIRWRPPRLPRPRPRPHRSPRP was tested. Which “shrunken log2 fold change” value did it give?
A: The value was -0.243.

Q: With RRIRNRPPRLPRPRPRPFNEPRP as the sequence, how does the “shrunken log2 fold change” value read?
A: Its value is -0.198.

Q: RRIRVRPPRLPRPRPRPSMPPRP was tested. Which “shrunken log2 fold change” value did it give?
A: The value was -0.343.

Q: RRIRCRPPRLPRPRPRPLHRPRP was tested. Which “shrunken log2 fold change” value did it give?
A: The value was 0.06.

Q: For RRIRTRPPRLPRPRPRPQGRPRP, which “shrunken log2 fold change” value is on record?
A: Its value is -0.0678.

Q: With RRIRKRPPRLPRPRPRPRCSPRP as the sequence, how does the “shrunken log2 fold change” value read?
A: Its value is 0.305.

Q: RRIRFRPPRLPRPRPRPQVFPRP was tested. Which “shrunken log2 fold change” value did it give?
A: Its value is -0.139.

Q: Which “shrunken log2 fold change” value does the source give for RRIRIRPPRLPRPRPRPMKAPRP here?
A: The value was -1.03.

Q: Which “shrunken log2 fold change” value does the source give for RRIRLRPPRLPRPRPRPILAPRP here?
A: Its value is -0.0814.

Q: With RRIRPRPPRLPRPRPRPSDHPRP as the sequence, how does the “shrunken log2 fold change” value read?
A: The value was -0.605.

Q: How did the “shrunken log2 fold change” value turn out when RRIRLRPPRLPRPRPRPNHSPRP was run?
A: The value was 0.135.

Q: With RRIRARPPRLPRPRPRPDPLPRP as the sequence, how does the “shrunken log2 fold change” value read?
A: The value was 0.867.

Q: How did the “shrunken log2 fold change” value turn out when RRIRQRPPRLPRPRPRPPDDPRP was run?
A: Its value is -0.308.

Q: How did the “shrunken log2 fold change” value turn out when RRIRSRPPRLPRPRPRPDQQPRP was run?
A: Its value is 0.0193.

Q: RRIRYRPPRLPRPRPRPTFKPRP was tested. Which “shrunken log2 fold change” value did it give?
A: The value was -0.445.

Q: With RRIRQRPPRLPRPRPRPQENPRP as the sequence, how does the “shrunken log2 fold change” value read?
A: The value was -0.0517.
